Source: the supplement of paper PMC10724198
± gives the standard deviation of the averaged measurements.

Test system: Saccharomyces cerevisiae
Assay: protein stability index of tFT-peptide fusion (C-terminal peptide) (PSI (0-1 scale)); higher = more stable (slower turnover)
Details: genetic background: wild type; temperature: 30 C
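Also: PSI is a weighted mean of sequencing reads over stability bins, variants kept only with over 10 reads, mCherry proximal and sfGFP distal, peptide attached via GGGS linker.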

Sequence	protein stability index
SPPPPLLPHPTP	0.723 ± 0.047
SPPPPPPARCPS	0.592 ± 0.045
SPPPPPPPHSPD	0.654 ± 0.071
SPPPPPPSPPLH	0.727 ± 0.044
SPPPPPTSPPPY	0.638 ± 0.0091
SPPPPRPRPCAI	0.753 ± 0.12
SPPRSCLPRPPD	0.676 ± 0.05
SPPRSPPTFPPC	0.704 ± 0.063
SPPSFIVPSTSL	0.69 ± 0.054
SPPSPASPPSSP	0.741 ± 0.075
SPPSPPPSPPTL	0.77 ± 0.092
SPPSPSPSPRPL	0.669 ± 0.03
SPPVPLSPPLSP	0.537 ± 0.023
SPRIDFLLPCSS	0.647 ± 0.032
SPRLPLSRPLVV	0.574 ± 0.0064
SPRLPPPRPLPS	0.676 ± 0.057
SPRPSPPPPSHA	0.636 ± 0.077
SPRRVAVAGETS	0.68 ± 0.093
SPSLPHAPSRPP	0.607 ± 0.06
SPSNPSLRLSSP	0.676 ± 0.023
SPSPPPPPPPPL	0.6877 ± 0.0022
SPSPPPRTPPPL	0.689 ± 0.022
SPSSLPPTLPTL	0.711 ± 0.021
SPTDSDINIPRV	0.714 ± 0.05
SPTGTPIIPSYP	0.684 ± 0.0098
SPTPPPTSPSRP	0.728 ± 0.11

Sequence	protein stability index
SPVSPPLVRPPY	0.642 ± 0.054
SQFLRPSAVAPS	0.642 ± 0.037
SQGLWRGVALTG	0.7325 ± 0.0017
SQHTNTKTKLKK	0.706 ± 0.043
SQKWKGSSVIIG	0.723 ± 0.032
SQLGRPSLHPVR	0.6601 ± 0.0024
SQRPPPLCDFTD	0.723 ± 0.013
SQTRIKPREETA	0.653 ± 0.031
SRAGAVLSGIES	0.669 ± 0.013
SRDRRASPPLPP	0.722 ± 0.049
SRDSRSSRRAGA	0.702 ± 0.065
SRESTPDSHTMS	0.726 ± 0.065
SRFHVLLPPPPS	0.674 ± 0.035
SRFSRAVSVARV	0.666 ± 0.023
SRGGGEGTVGKK	0.697 ± 0.022
SRGGGWSEGGEG	0.716 ± 0.028
SRGLPAPASRYC	0.713 ± 0.015
SRHPPPPVSPHP	0.727 ± 0.064
SRHPSFPLPMPL	0.746 ± 0.086
SRHRAVRAGENW	0.708 ± 0.045
SRISSCSLVRPP	0.679 ± 0.032
SRKNGLQRKQKT	0.7277 ± 0.0055
SRLLLPIGISRV	0.543 ± 0.16
SRLNRRKGNGRK	0.656 ± 0.083
SRLSPSPLPPFL	0.667 ± 0.023
SRNAFTLAARVY	0.589 ± 0.016

Sequence	protein stability index
SRPALLLGSEAT	0.642 ± 0.031
SRPATGSVTFPP	0.694 ± 0.0098
SRPPHPSPPRTF	0.675 ± 0.03
SRPPSSQSNDEL	0.66 ± 0.078
SRQPPPRVFCVV	0.571 ± 0.035
SRRKMRILQIVD	0.623 ± 0.092
SRRNRIYSHTSS	0.666 ± 0.025
SRSGLSPTLPVF	0.699 ± 0.016
SRSGPGEIVTTG	0.688 ± 0.041
SRSPLCRCAPSF	0.6534 ± 0.0043
SRSPPVLTRHKL	0.824 ± 0.058
SRVVAGLWRGAV	0.671 ± 0.18
SRWLLSLFTSSF	0.762 ± 0.052
SRYRPTGAHYGH	0.714 ± 0.064
SSAGEVAFVAGT	0.689 ± 0.089
SSAPPPPPRPLP	0.588 ± 0.052
SSFPPAPHAPHD	0.739 ± 0.03
SSFRASVRSRKT	0.692 ± 0.022
SSFSAPPMPRSF	0.653 ± 0.028
SSGNSVDCFGHQ	0.6959 ± 0.0057
SSHLILTVAPSA	0.6515 ± 0.0045
SSHPMNQVIKDR	0.659 ± 0.13
SSKGGWSGGGSV	0.71 ± 0.025
SSLAPLLYLDTP	0.661 ± 0.084
SSLRPSRPPPAS	0.6988 ± 0.0057
SSLSPLLYRPLF	0.742 ± 0.047

Sequence	protein stability index
SSLSPTPPPSFP	0.84 ± 0.2
SSPAPPPLLLPS	0.7047 ± 0.00088
SSPIFPDPSHVS	0.6058 ± 0.0054
SSPLSSPLSTAP	0.622 ± 0.018
SSPLVHWFSYLS	0.682 ± 0.023
SSPPPHPPPVPR	0.688 ± 0.1
SSPPRPLPPHHT	0.705 ± 0.059
SSPSFPSPLPPY	0.701 ± 0.074
SSPSYVPVSYSQ	0.708 ± 0.066
SSRAPSLPPPPP	0.674 ± 0.025
SSRCLPPFPLCP	0.736 ± 0.11
SSRLALVLLPPG	0.649 ± 0.042
SSRRYSGLSFTS	0.702 ± 0.015
SSRVLFRVSVLR	0.646 ± 0.09
SSSFFLFPVGFF	0.784 ± 0.14
SSSHRPTAPSSR	0.669 ± 0.05
SSSPLPPPSPPP	0.673 ± 0.032
SSSPTPLPRSLP	0.671 ± 0.024
SSSTPPVHVPIS	0.647 ± 0.083
SSSVSYFLHYCI	0.606 ± 0.038
SSSWILCRFGRS	0.664 ± 0.041
SSTCSPPRLSQS	0.679 ± 0.046
SSVEREEEGGGG	0.676 ± 0.11
